Measured values published in the supplement of paper PMC10567573.

B1: RAB40A (parent)
chain: NWLGRPSKVLSLQDLCCRTIVSCT

Variants of: B1
Assay: protein stability index of a GFP-peptide fusion (GPS, HEK-293T) (PSI 1-6); higher = more stable
Conditions: c terminus: a fixed tail appended
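Note: lentivirally expressed fusions sorted by FACS into six bins by GFP to DsRed ratio, PSI derived from sequencing read proportions per bin multiplied by bin number.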

Protein stability index, by site and new letter:
K8: W 2.33 | Y 1.96 | V 1.89
V9: H 2.21 | E 2.3 | Q 2.2 | P 2.09 | I 2.36 | S 2.05 | W 2.16 | M 2.23 | G 2.32 | K 2.29 | Y 2.23 | R 1.85 | N 2.4 | C 2.07 | F 1.93 | A 2.31 | D 2.28 | L 2.12 | T 2.45
S11: R 2.2 | T 2.6 | W 1.77 | D 1.9 | Q 2.11 | H 1.92 | Y 2.03 | N 2.22 | M 1.97 | E 2.01 | K 2.67 | C 1.66 | P 2.14 | A 1.88 | V 2.74 | F 1.67 | L 1.86 | G 1.54
L15: G 1.74 | Q 2.42 | I 2.31 | F 1.45 | M 2.13 | A 2.15 | D 2.02 | K 2.16 | H 1.99 | Y 2.15 | S 1.96 | V 1.72 | R 2.51 | W 2.1 | N 2.18 | P 1.62 | T 1.92 | C 1.89 | E 2.15
L10: C 2.04 | W 1.93 | F 2.02 | M 2.56 | R 2.6 | Y 2.43 | K 2.35 | Q 2.24 | T 2.49 | H 2.07 | I 2.41 | G 2.64 | D 2.31 | N 2.22 | E 2.15 | V 2.09 | S 2.57 | P 2.62 | A 2.52
D14: Y 2.04 | R 1.51 | E 2.54 | K 1.9 | H 2.13 | P 1.97 | M 1.58 | Q 2.12 | L 1.67 | S 2.07 | F 2.14 | W 1.84 | C 1.78 | T 2.11 | N 2.29 | G 2.45 | A 1.99 | V 1.72 | I 1.48
C16: T 2.06 | L 2.02 | W 2.79 | I 2.17 | K 2.25 | R 1.75 | A 2.5 | Y 1.44 | D 2.2 | N 1.61 | Q 1.51 | P 2.02 | G 1.44 | V 2.19 | S 2.31 | H 1.58 | F 2.44 | M 1.98 | E 1.9
C17: I 2.54 | E 3.08 | D 2.79 | G 2.34 | F 2.53 | L 2.77 | K 3.26 | H 2.88 | P 1.74 | N 2.95 | M 2.54 | Q 3.09 | A 2.66
L12: P 1.48 | W 2.25 | D 1.8 | Q 2.31 | T 1.81 | S 1.73 | C 1.79 | M 1.95 | K 2.15 | G 3.06 | H 2.31 | N 1.46 | R 2.23 | E 1.8 | V 2.87 | A 1.38 | I 2.27 | Y 3.31 | F 2.75
Q13: I 2.93 | V 2.81 | H 2.62 | R 3.23 | K 2.86 | E 2.41 | T 2.51 | M 2.12 | F 2.75 | N 1.8 | G 2.21 | Y 2.42 | A 2.86 | P 1.68 | C 2.42 | W 2.82 | L 2.44 | D 1.61 | S 2.67
